Reference: patent US20260001961A1 (ALLIGATOR BIOSCIENCE, published 2026)
Where a chain is given by its changes, count along the chain named. In names and notes the source's numbering stands.

B1: AC_05293 (bispecific antibody)
heavy: not shown
light: DIQMTQSPSSLSASVGDRVTITCRASQSISSYLNWYQEKPGKAPKLLIYAASSLQSGVPSRFSGSGSGTDFTLTISSLQPEDFATYYCQQYGRNPPTFGQGTKLEIKRTVAAPSVFIFPPSDEQLKSGTASVVCYLNNFYPREAKVQWKVDNALQSGNSQESVTEQDSKDSTYSLWSTLTLSKADYEKHKVYACEVTHQGLSSPVTKSFNRGEC
chain: EVQLLEQSGAELVRPGTSVKISCKASGYAFTNYWLGWVKERPGHGLEWIGDIFPGSGNIHYNEKFKGKATLTADKSSSTAYMQLSSLTFEDSAVYFCARLRNWDEPMDYWGQGTTVTVSSASTKGPSVFPLAPSSKSTSGGTAALGCLVKDYFPEPVTVSWNSGALTSGVHTFPAVLQSSGLYSLSSVVEVPSSSLGTQTYICNVNHKPSNTKVDKKVEPKSC
notes: Chain H1 (role heavy) = IgG heavy chain-linker-Fab light chain; chain L1 (role light) = IgG light chain; chain H2 (role chain) = Fab heavy chain VH-CH1; also called wt bsAb (AC_05293); wild-type bsAb
B2: 4110 (bispecific antibody)
heavy 1: not shown
heavy 2: B1 chain
light: B1 light
notes: also called single mutant I126G of AC_05293; copies: 2 + 2 + 2
B3: 4109 (bispecific antibody)
heavy 1: not shown
heavy 2: B1 chain
light: B1 light
notes: CD40 x EpCAM; also called single mutant I126A of AC_05293; copies: 2 + 2 + 2
B4: AM_4109-4134 (bispecific antibody)
heavy 1: not shown
light: B1 light
heavy 2: B1 chain with V191G
notes: AC_05293 backbone; also called double mutant I126A + V188G; copies: 2 + 2 + 2
B5: AM_4109-4131 (bispecific antibody)
heavy 1: not shown
light: B1 light
heavy 2: B1 chain with Y183W
notes: AC_05293 backbone; also called double mutant I126A + Y180W; copies: 2 + 2 + 2
B6: AM_4109-4133 (bispecific antibody)
heavy 1: not shown
light: B1 light
heavy 2: B1 chain with S186T
notes: AC_05293 backbone; also called double mutant I126A + S183T; copies: 2 + 2 + 2
B7: AM_4109-4126 (bispecific antibody)
heavy 1: not shown
light: B1 light
heavy 2: B1 chain with Y183I
notes: AC_05293 backbone; also called double mutant I126A + Y180I; copies: 2 + 2 + 2
B8: AM_4120-4133 (bispecific antibody)
heavy 1: not shown
light: B1 light
heavy 2: B1 chain with S186T
notes: AC_05293 backbone; also called double mutant A111V + S183T; copies: 2 + 2 + 2
B9: AM_4110-4134 (bispecific antibody)
heavy 1: not shown
light: B1 light
heavy 2: B1 chain with V191G
notes: AC_05293 backbone; also called double mutant I126G + V188G; copies: 2 + 2 + 2
B10: AM_4117-4131 (bispecific antibody)
heavy 1: not shown
light: B1 light
heavy 2: B1 chain with Y183W
notes: AC_05293 backbone; also called double mutant T109P + Y180W; copies: 2 + 2 + 2
B11: AM_4115-4133 (bispecific antibody)
heavy 1: not shown
light: B1 light
heavy 2: B1 chain with S186T
notes: AC_05293 backbone; also called double mutant I126S + S183T; copies: 2 + 2 + 2
B12: AM_4110-4133 (bispecific antibody)
heavy 1: not shown
light: B1 light
heavy 2: B1 chain with S186T
notes: AC_05293 backbone; also called double mutant I126G + S183T; copies: 2 + 2 + 2
B13: AM_4110-4131 (bispecific antibody)
heavy 1: not shown
light: B1 light
heavy 2: B1 chain with Y183W
notes: AC_05293 backbone; also called double mutant I126G + Y180W; copies: 2 + 2 + 2
B14: AM_4120-4126 (bispecific antibody)
heavy 1: not shown
light: B1 light
heavy 2: B1 chain with Y183I
notes: AC_05293 backbone; also called double mutant A111V + Y180I; copies: 2 + 2 + 2
B15: AM_4117-4133 (bispecific antibody)
heavy 1: not shown
light: B1 light
heavy 2: B1 chain with S186T
notes: AC_05293 backbone; also called double mutant T109P + S183T; copies: 2 + 2 + 2
B16: AM_4120-4134 (bispecific antibody)
heavy 1: not shown
light: B1 light
heavy 2: B1 chain with V191G
notes: AC_05293 backbone; also called double mutant A111V + V188G; copies: 2 + 2 + 2
B17: AM_4117-4126 (bispecific antibody)
heavy 1: not shown
light: B1 light
heavy 2: B1 chain with Y183I
notes: AC_05293 backbone; also called double mutant T109P + Y180I; copies: 2 + 2 + 2
B18: AM_4110-4126 (bispecific antibody)
heavy 1: not shown
light: B1 light
heavy 2: B1 chain with Y183I
notes: AC_05293 backbone; also called double mutant I126G + Y180I; copies: 2 + 2 + 2
B19: AM_4117-4134 (bispecific antibody)
heavy 1: not shown
light: B1 light
heavy 2: B1 chain with V191G
notes: AC_05293 backbone; also called double mutant T109P + V188G; copies: 2 + 2 + 2
B20: AM_4120-4131 (bispecific antibody)
heavy 1: not shown
light: B1 light
heavy 2: B1 chain with Y183W
notes: AC_05293 backbone; also called double mutant A111V + Y180W; copies: 2 + 2 + 2
B21: AM_4115-4134 (bispecific antibody)
heavy 1: not shown
light: B1 light
heavy 2: B1 chain with V191G
notes: AC_05293 backbone; also called double mutant I126S + V188G; copies: 2 + 2 + 2
B22: AM_4119 (bispecific antibody)
heavy 1: not shown
heavy 2: B1 chain
light: B1 light
notes: also called single mutant A111T of AC_05293; copies: 2 + 2 + 2
B23: AM_4120 (bispecific antibody)
heavy 1: not shown
heavy 2: B1 chain
light: B1 light
notes: also called single mutant A111V of AC_05293; copies: 2 + 2 + 2
B24: AM_4121 (bispecific antibody)
heavy 1: not shown
heavy 2: B1 chain
light: B1 light
notes: also called single mutant A111W of AC_05293; copies: 2 + 2 + 2
B25: AC_05378 (bispecific antibody)
heavy 1: not shown
light: B1 light
heavy 2: EVQLLESGGGLVQPGGSLRLSCAASGFTFSSYAMSWVREAPGKGLEWVSAISGSGGSIYYADSVKGRFTISRDNSKNTLYLQMNSLRAEDTAVYYCARYYGGYYSAWMDYWGQGTLVTVSSASTKGPSVFPLAPSSKSTSGGTAALGCLVKDYFPEPVTVSWNSGALTSGVHTFPAVLQSSGLYSLSSVVEVPSSSLGTQTYICNVNHKPSNTKVDKKVEPKSC
notes: AC_05302 with the mutation in the VH of chain H2; also called T65I mutant of AC_05302; copies: 2 + 2 + 2
B26: AC_05377 (bispecific antibody)
heavy 1: not shown
light: B1 light
heavy 2: B25 heavy 2 with I58A
notes: AC_05302 with the mutation in the VH of chain H2; also called T65A mutant of AC_05302; copies: 2 + 2 + 2

These binders were tested against T1, CD40 (UniProt P25942 21-193) (assay: dual ELISA: CD40 coated, bsAb titrated, biotinylated EpCAM + streptavidin-HRP; signal needs both targets).
T1 construct: also called biotinylated CD40; CD40 antigen
T1 sequence (P25942 21-193 limits assumed): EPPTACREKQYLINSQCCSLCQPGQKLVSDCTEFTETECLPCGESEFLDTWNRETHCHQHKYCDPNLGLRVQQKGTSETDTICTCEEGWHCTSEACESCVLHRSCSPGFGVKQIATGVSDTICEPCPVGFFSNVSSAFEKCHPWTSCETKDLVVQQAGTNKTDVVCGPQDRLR
Method: (§1) Dual ELISA Plates were coated with 0.5 μg/mL CD40 in PBS over night at 4° C. After washing in PBS/0.05% Tween 20 (PBST), the plates were blocked with PBS/2% BSA for at least 30 minutes at room temperature before being washed again. Samples serially diluted in PBS/0.5% BSA were then added and allowed to bind for at least 1 hour at room temperature. […] Dual complexed bsAb with CD40 and EpCAM were detected with HRP-labelled streptavidin. SuperSignal Pico Luminescent was used as substrate and luminescence signals were measured using Fluostar Optima.

Row | Binder | EC50 (read off the curve)
1 | B1 | ~0.1 µg/mL
2 | B2 | ~0.1 µg/mL
3 | B3 | ~0.1 µg/mL

Molecular target: T1, CD40
Test: as above
Remark: another data set of the same source
Method: as §1

Row | Binder | EC50 (read off the curve)
4 | B1 | ~0.9 nM
5 | B4 | ~0.9 nM
6 | B5 | ~0.9 nM
7 | B6 | ~0.9 nM
8 | B7 | ~0.9 nM

These binders were tested against T1, CD40 (assay: Octet BLI; biotinylated CD40 on streptavidin sensor;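 also: octet RED96 biolayer interferometry, 300 s association then 300 s dissociation in kinetic buffer, buffer-blank referenced, fitted with a 1:1 Langmuir binding model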).
Method: (§2) Kinetic measurements were performed using the Octet RED96 platform (ForteBIo). […] Association was followed for 300 seconds followed by dissociation in 1x Kinetic buffer for 300 seconds. Sensor tips were regenerated using 10 mM glycine, pH 1.7. Data generated were referenced by subtracting a parallel buffer blank, the baseline was aligned with the γ-axis, inter-step correlation by alignment against dissociation was performed and the data were smoothed by a Savitzky-Golay filter in the data analysis software (v.9.0.0.14). The processed data were fitted using a 1:1 Langmuir binding model with X2 as a measurement of fitting accuracy.
(§3) Binding affinities of all the variants were determined using Octet (Pall ForteBio).

Row | Binder | Kd | koff | kon
9 | B1 | 0.93 nM | 0.001 s⁻¹ | 1.1e+06 M⁻¹ s⁻¹
10 | B8 | 0.9 nM | 0.0011 s⁻¹ | 1.2e+06 M⁻¹ s⁻¹
11 | B9 | 0.88 nM | 0.00075 s⁻¹ | 860000 M⁻¹ s⁻¹
12 | B10 | 1 nM | 0.00066 s⁻¹ | 630000 M⁻¹ s⁻¹
13 | B4 | 0.83 nM | 0.00092 s⁻¹ | 1.1e+06 M⁻¹ s⁻¹
14 | B11 | 1 nM | 0.0011 s⁻¹ | 1.1e+06 M⁻¹ s⁻¹
15 | B12 | 1.1 nM | 0.00075 s⁻¹ | 680000 M⁻¹ s⁻¹
16 | B13 | 1.2 nM | 0.00056 s⁻¹ | 450000 M⁻¹ s⁻¹
17 | B14 | 0.86 nM | 0.001 s⁻¹ | 1.2e+06 M⁻¹ s⁻¹
18 | B15 | 0.93 nM | 0.0007 s⁻¹ | 750000 M⁻¹ s⁻¹
19 | B16 | 0.91 nM | 0.0011 s⁻¹ | 1.2e+06 M⁻¹ s⁻¹
20 | B5 | 0.89 nM | 0.00072 s⁻¹ | 800000 M⁻¹ s⁻¹
21 | B17 | 1.2 nM | 0.00048 s⁻¹ | 400000 M⁻¹ s⁻¹
22 | B18 | 1.5 nM | 0.00051 s⁻¹ | 350000 M⁻¹ s⁻¹
23 | B19 | 0.97 nM | 0.00072 s⁻¹ | 740000 M⁻¹ s⁻¹
24 | B20 | 1.1 nM | 0.00097 s⁻¹ | 920000 M⁻¹ s⁻¹
25 | B21 | 1.1 nM | 0.001 s⁻¹ | 930000 M⁻¹ s⁻¹
26 | B6 | 0.73 nM | 0.001 s⁻¹ | 1.4e+06 M⁻¹ s⁻¹
27 | B7 | 1.2 nM | 0.0006 s⁻¹ | 480000 M⁻¹ s⁻¹

Molecular target: T1, CD40
Test: dual ELISA: CD40 coated, bsAb titrated, biotinylated EpCAM + streptavidin-HRP; signal needs both targets
Remark: another data set of the same source
Method: as §1

Row | Binder | EC50 (read off the curve)
28 | B22 | ~0.1 µg/mL
29 | B23 | ~0.1 µg/mL
30 | B24 | ~0.1 µg/mL

The binders below were run against T2, EpCAM (UniProt P16422 24-265) (assay: Octet BLI; biotinylated EpCAM on streptavidin sensor;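 also: octet RED96 kinetics: 300 s association, then 300 s dissociation in 1x Kinetic buffer, buffer-blank referenced, Savitzky-Golay smoothed, fitted to a 1:1 Langmuir binding model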).
T2 construct: also called biotinylated EpCAM
T2 sequence (looked up): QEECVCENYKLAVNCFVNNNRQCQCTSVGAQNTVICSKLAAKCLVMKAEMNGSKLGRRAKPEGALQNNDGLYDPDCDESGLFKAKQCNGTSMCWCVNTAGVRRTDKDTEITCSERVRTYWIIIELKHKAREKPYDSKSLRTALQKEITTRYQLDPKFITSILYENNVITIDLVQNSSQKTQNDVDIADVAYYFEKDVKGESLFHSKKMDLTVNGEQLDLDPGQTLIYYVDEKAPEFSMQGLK
Method: as §2, §3

Row | Binder | Kd | koff | kon
31 | B1 | 4.8 nM | 0.0012 s⁻¹ | 230000 M⁻¹ s⁻¹
32 | B8 | 5.7 nM | 0.0014 s⁻¹ | 240000 M⁻¹ s⁻¹
33 | B9 | 5.3 nM | 0.0011 s⁻¹ | 200000 M⁻¹ s⁻¹
34 | B10 | 4.5 nM | 0.0012 s⁻¹ | 260000 M⁻¹ s⁻¹
35 | B4 | 4.7 nM | 0.00098 s⁻¹ | 210000 M⁻¹ s⁻¹
36 | B11 | 7 nM | 0.0013 s⁻¹ | 180000 M⁻¹ s⁻¹
37 | B12 | 4.9 nM | 0.00096 s⁻¹ | 190000 M⁻¹ s⁻¹
38 | B13 | 4.7 nM | 0.00095 s⁻¹ | 200000 M⁻¹ s⁻¹
39 | B14 | 5.6 nM | 0.0013 s⁻¹ | 230000 M⁻¹ s⁻¹
40 | B15 | 4.6 nM | 0.0012 s⁻¹ | 260000 M⁻¹ s⁻¹
41 | B16 | 5.8 nM | 0.0014 s⁻¹ | 250000 M⁻¹ s⁻¹
42 | B5 | 4.4 nM | 0.00081 s⁻¹ | 180000 M⁻¹ s⁻¹
43 | B17 | 4.6 nM | 0.001 s⁻¹ | 220000 M⁻¹ s⁻¹
44 | B18 | 5.1 nM | 0.0009 s⁻¹ | 170000 M⁻¹ s⁻¹
45 | B19 | 5.2 nM | 0.0012 s⁻¹ | 230000 M⁻¹ s⁻¹
46 | B20 | 5.3 nM | 0.0015 s⁻¹ | 280000 M⁻¹ s⁻¹
47 | B21 | 6.9 nM | 0.0013 s⁻¹ | 190000 M⁻¹ s⁻¹
48 | B6 | 4.6 nM | 0.00092 s⁻¹ | 200000 M⁻¹ s⁻¹
49 | B7 | 4.3 nM | 0.00077 s⁻¹ | 180000 M⁻¹ s⁻¹

Each binder was assayed against T3, CD40 expressed on cells (UniProt P25942 21-277) (assay: flow cytometry on B16 cells expressing CD40, anti-human IgG Fcg-PE; B16wt cells as control).
T3 construct: whole, on cells; also called B16-CD40; CD40 expressing B16 cells
T3 sequence (P25942 21-277 limits assumed): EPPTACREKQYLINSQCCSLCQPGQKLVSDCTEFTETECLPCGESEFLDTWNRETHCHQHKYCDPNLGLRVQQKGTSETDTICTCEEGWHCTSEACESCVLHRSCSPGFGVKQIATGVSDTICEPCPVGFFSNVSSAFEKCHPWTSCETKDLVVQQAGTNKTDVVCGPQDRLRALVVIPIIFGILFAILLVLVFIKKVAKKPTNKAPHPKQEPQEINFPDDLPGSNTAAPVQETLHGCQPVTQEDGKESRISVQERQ
Method: Binding to respective targets expressed on cells were evaluated using flow cytometry. I brief, CHO cells modified to express 5T4, B16 cells modified to express CD40 as well as the wildtype CHO and B16 cell lines were incubated with titrated concentrations of RUBY™ bsAbs. Binding of the antibodies was detected using fluorochrome-conjugated anti-human IgG and analyzed using flow cytometry.

Row | Binder | EC50 (read off the curve)
50 | B25 | ~1 nM
51 | B26 | ~1 nM
